Experimental findings from the supplement of paper PMC10567573 are described below.

To fix the notation:
B1: PLAGL1 (parent)
chain: TKEKKHQCDHCERCFYTRKDVRRH
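Further: lentivirally expressed fusions sorted by FACS into six bins by GFP to DsRed ratio, PSI derived from sequencing read proportions per bin multiplied by bin number.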

Variants of B1 are the subject of this series. The series is described as follows: protein stability index of a GFP-peptide fusion (GPS, HEK-293T) (PSI 1-6); higher = more stable. As to conditions: c terminus: a fixed tail appended.
In the case of TKEKKHQCDHCERCFYTRKVVRRH [D20V], the protein stability index was 3.71.

Turning to TKEKKHQCDHCERCFYTRKYVRRH [D20Y], the protein stability index was 3.28.

In the case of TKEKKHQCDHCERCFYTRKAVRRH [D20A], the protein stability index turned out to be 3.61.

For TKEKKHQCDHCERCFYTRKIVRRH [D20I], the protein stability index was 2.65.

In the case of TKEKKHQCDHCERCFYTRKSVRRH [D20S], the protein stability index worked out at 3.22.

As to TKEKKHQCDHCERCFYTRKGVRRH [D20G], the protein stability index amounted to 3.21.

For TKEKKHQCDHCERCFYTRKFVRRH [D20F], the protein stability index amounted to 3.14.

Consider TKEKKHQCDHCERCFYTRKWVRRH [D20W], for which the protein stability index is 3.03.

As to TKEKKHQCDHCERCFYTRKCVRRH [D20C], the protein stability index came out at 3.02.

With TKEKKHQCDHCERCFYTRKRVRRH [D20R], the protein stability index is 3.84.

For TKEKKHQCDHCERCFYTRKTVRRH [D20T], the protein stability index is 2.96.

Consider TKEKKHQCDHCERCFYTRKPVRRH [D20P], for which the protein stability index was determined as 3.1.

TKEKKHQCDHCERCFYTRKMVRRH [D20M]: the protein stability index stood at 3.44.

Consider TKEKKHQCDHCERCFYTRKHVRRH [D20H], for which the protein stability index stood at 3.43.

For TKEKKHQCDHCERCFYTRKLVRRH [D20L], the protein stability index came to 3.14.

TKEKKHQCDHCERCFYTRKKVRRH [D20K]: the protein stability index came to 3.29.

As for TKEKKHQCDHCERCFYTRKQVRRH [D20Q], the protein stability index turned out to be 3.43.

For the variant TKEKKHQCDHCERCFYTRKNVRRH [D20N], the protein stability index stood at 3.37.

For TKEKKHQCDHCERCFYTRKEVRRH [D20E], the protein stability index worked out at 3.96.

As to TKEKKHQCDHCERCFYTRVDVRRH [K19V], the protein stability index came out at 2.95.

For TKEKKHQCDHCERCFYTRWDVRRH [K19W], the protein stability index stood at 3.13.

Take TKEKKHQCDHCERCFYTRRDVRRH [K19R]: the protein stability index turned out to be 4.12.

Regarding TKEKKHQCDHCERCFYTRYDVRRH [K19Y], the protein stability index was found to be 3.25.

In the case of TKEKKHQCDHCERCFYTRTDVRRH [K19T], the protein stability index was determined as 3.4.

As to TKEKKHQCDHCERCFYTRSDVRRH [K19S], the protein stability index turned out to be 3.17.

In the case of TKEKKHQCDHCERCFYTRKDPRRH [V21P], the protein stability index stood at 2.97.

Take TKEKKHQCDHCERCFYTRKDMRRH [V21M]: the protein stability index turned out to be 3.52.

As to TKEKKHQCDHCERCFYTRKDQRRH [V21Q], the protein stability index turned out to be 3.25.

Consider TKEKKHQCDHCERCFYTRKDLRRH [V21L], for which the protein stability index worked out at 3.74.

As for TKEKKHQCDHCERCFYTRKDHRRH [V21H], the protein stability index came to 3.7.

Consider TKEKKHQCDHCERCFYTRKDIRRH [V21I], for which the protein stability index came to 3.25.

For the variant TKEKKHQCDHCERCFYTRKDYRRH [V21Y], the protein stability index is 3.98.

As to TKEKKHQCDHCERCFYTRKDARRH [V21A], the protein stability index was found to be 3.68.

On to TKEKKHQCDHCERCFYTRKDFRRH [V21F], for which the protein stability index is 3.47.

In the case of TKEKKHQCDHCERCFYTRKDERRH [V21E], the protein stability index is 3.9.

For TKEKKHQCDHCERCFYTRKDCRRH [V21C], the protein stability index worked out at 3.85.

Turning to TKEKKHQCDHCERCFYTRKDTRRH [V21T], the protein stability index came to 3.34.

As for TKEKKHQCDHCERCFYTRKDSRRH [V21S], the protein stability index turned out to be 3.01.

On to TKEKKHQCDHCERCFYTRKDGRRH [V21G], for which the protein stability index came to 3.65.

As for TKEKKHQCDHCERCFYTRKDRRRH [V21R], the protein stability index worked out at 3.95.

For TKEKKHQCDHCERCFYTRKDWRRH [V21W], the protein stability index is 3.58.

As to TKEKKHQCDHCERCFYTRKDKRRH [V21K], the protein stability index was determined as 3.88.

Take TKEKKHQCDHCERCFYTRKDDRRH [V21D]: the protein stability index was 3.53.

TKEKKHQCDHCERCFYTRKDNRRH [V21N]: the protein stability index came to 3.54.

For TKEKKHQCDHCERCFYTRKDVRCH [R23C], the protein stability index is 3.49.

On to TKEKKHQCDHCERCFYTRKDVRWH [R23W], for which the protein stability index is 3.08.

TKEKKHQCDHCERCFYTRKDVRPH [R23P]: the protein stability index was 4.04.

With TKEKKHQCDHCERCFYTRKDVRFH [R23F], the protein stability index is 3.33.

On to TKEKKHQCDHCERCFYTRKDVRSH [R23S], for which the protein stability index was found to be 3.7.

Turning to TKEKKHQCDHCERCFYTRKDVRKH [R23K], the protein stability index turned out to be 4.27.

Take TKEKKHQCDHCERCFYTRKDVRYH [R23Y]: the protein stability index stood at 3.53.

As for TKEKKHQCDHCERCFYTRKDVRIH [R23I], the protein stability index worked out at 3.67.

Regarding TKEKKHQCDHCERCFYTRKDVRGH [R23G], the protein stability index came out at 4.31.

On to TKEKKHQCDHCERCFYTRKDVRTH [R23T], for which the protein stability index came to 3.71.

Consider TKEKKHQCDHCERCFYTRKDVRAH [R23A], for which the protein stability index is 4.13.

In the case of TKEKKHQCDHCERCFYTRKDVRVH [R23V], the protein stability index was 3.08.

Take TKEKKHQCDHCERCFYTRKDVREH [R23E]: the protein stability index stood at 4.26.

Take TKEKKHQCDHCERCFYTRKDVRQH [R23Q]: the protein stability index was 3.84.

Turning to TKEKKHQCDHCERCFYTRKDVRHH [R23H], the protein stability index is 3.85.

TKEKKHQCDHCERCFYTRKDVRLH [R23L]: the protein stability index worked out at 3.92.

Turning to TKEKKHQCDHCERCFYTRKDVRNH [R23N], the protein stability index was found to be 4.01.

In the case of TKEKKHQCDHCERCFYTRKDVRMH [R23M], the protein stability index worked out at 3.79.

TKEKKHQCDHCERCFYTRKDVRDH [R23D]: the protein stability index is 4.49.

As for TKEKKHQCDHCERCFYTRKDVRRV [H24V], the protein stability index is 3.11.

With TKEKKHQCDHCERCFYTRKDVRRK [H24K], the protein stability index was determined as 3.62.

With TKEKKHQCDHCERCFYTRKDVRRM [H24M], the protein stability index worked out at 2.88.

TKEKKHQCDHCERCFYTRKDVRRG [H24G]: the protein stability index was found to be 3.52.

As for TKEKKHQCDHCERCFYTRKDVRRQ [H24Q], the protein stability index turned out to be 3.58.

For the variant TKEKKHQCDHCERCFYTRKDVRRN [H24N], the protein stability index stood at 2.89.

Take TKEKKHQCDHCERCFYTRKDVRRF [H24F]: the protein stability index was 3.06.

For the variant TKEKKHQCDHCERCFYTRKDVRRL [H24L], the protein stability index came out at 3.17.

Regarding TKEKKHQCDHCERCFYTRKDVRRC [H24C], the protein stability index is 3.31.

With TKEKKHQCDHCERCFYTRKDVRRE [H24E], the protein stability index was determined as 4.12.

Consider TKEKKHQCDHCERCFYTRKDVRRW [H24W], for which the protein stability index was found to be 3.03.

Consider TKEKKHQCDHCERCFYTRKDVRRS [H24S], for which the protein stability index was found to be 3.27.

Turning to TKEKKHQCDHCERCFYTRKDVRRD [H24D], the protein stability index was 3.84.

For the variant TKEKKHQCDHCERCFYTRKDVRRI [H24I], the protein stability index turned out to be 3.24.

Regarding TKEKKHQCDHCERCFYTRKDVRRR [H24R], the protein stability index was 3.37.

Take TKEKKHQCDHCERCFYTRKDVRRP [H24P]: the protein stability index was found to be 3.24.

As for TKEKKHQCDHCERCFYTRKDVRRT [H24T], the protein stability index worked out at 3.63.

In the case of TKEKKHQCDHCERCFYTRKDVRRA [H24A], the protein stability index was 3.79.

Regarding TKEKKHQCDHCERCFYTRKDVRRY [H24Y], the protein stability index was determined as 2.79.

Consider TKEKKHQCDHCERCFYTRKDVARH [R22A], for which the protein stability index came out at 3.54.

Take TKEKKHQCDHCERCFYTRKDVMRH [R22M]: the protein stability index stood at 3.65.

Regarding TKEKKHQCDHCERCFYTRKDVLRH [R22L], the protein stability index came out at 3.84.

TKEKKHQCDHCERCFYTRKDVQRH [R22Q]: the protein stability index is 3.51.

For the variant TKEKKHQCDHCERCFYTRKDVPRH [R22P], the protein stability index came out at 3.62.

For the variant TKEKKHQCDHCERCFYTRKDVHRH [R22H], the protein stability index amounted to 3.96.

In the case of TKEKKHQCDHCERCFYTRKDVVRH [R22V], the protein stability index turned out to be 3.76.

As for TKEKKHQCDHCERCFYTRKDVSRH [R22S], the protein stability index amounted to 3.71.

With TKEKKHQCDHCERCFYTRKDVDRH [R22D], the protein stability index worked out at 4.31.

On to TKEKKHQCDHCERCFYTRKDVERH [R22E], for which the protein stability index stood at 4.73.

For the variant TKEKKHQCDHCERCFYTRKDVWRH [R22W], the protein stability index was 3.27.

Consider TKEKKHQCDHCERCFYTRKDVNRH [R22N], for which the protein stability index stood at 4.04.

For TKEKKHQCDHCERCFYTRKDVFRH [R22F], the protein stability index is 3.51.
